Results from US20030004314A1 (published 2003).

How the values were obtained:
Assay in all cases: cell-based or functional assay
[1] = molecular target: T1, T cell IL-4 receptor (IL-4Rα/IL-2Rγ) (human, UniProt P24394 26-825; P31785 23-369)
T1 sequence (looked up) 1: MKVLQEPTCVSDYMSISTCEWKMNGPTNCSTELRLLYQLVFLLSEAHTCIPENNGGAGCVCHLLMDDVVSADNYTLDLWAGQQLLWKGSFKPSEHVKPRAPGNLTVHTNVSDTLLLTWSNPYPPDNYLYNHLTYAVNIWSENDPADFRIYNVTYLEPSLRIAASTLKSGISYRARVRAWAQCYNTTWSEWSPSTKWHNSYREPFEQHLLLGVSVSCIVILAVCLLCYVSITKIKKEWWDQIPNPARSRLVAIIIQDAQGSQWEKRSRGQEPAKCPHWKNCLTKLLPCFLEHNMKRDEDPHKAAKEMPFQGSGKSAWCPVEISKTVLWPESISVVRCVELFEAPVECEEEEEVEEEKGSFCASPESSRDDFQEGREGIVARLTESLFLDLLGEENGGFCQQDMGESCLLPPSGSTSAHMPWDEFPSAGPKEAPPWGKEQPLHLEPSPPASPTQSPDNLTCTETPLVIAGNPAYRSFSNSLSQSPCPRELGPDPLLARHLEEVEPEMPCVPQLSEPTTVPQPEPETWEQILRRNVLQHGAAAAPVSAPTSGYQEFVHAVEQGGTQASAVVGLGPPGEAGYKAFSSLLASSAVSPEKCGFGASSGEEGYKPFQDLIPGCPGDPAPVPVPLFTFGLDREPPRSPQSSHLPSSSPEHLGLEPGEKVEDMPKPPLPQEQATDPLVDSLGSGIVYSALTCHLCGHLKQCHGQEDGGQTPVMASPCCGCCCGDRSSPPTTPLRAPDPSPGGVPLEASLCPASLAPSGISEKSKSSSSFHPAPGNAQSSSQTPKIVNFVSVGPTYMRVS
T1 sequence (looked up) 2: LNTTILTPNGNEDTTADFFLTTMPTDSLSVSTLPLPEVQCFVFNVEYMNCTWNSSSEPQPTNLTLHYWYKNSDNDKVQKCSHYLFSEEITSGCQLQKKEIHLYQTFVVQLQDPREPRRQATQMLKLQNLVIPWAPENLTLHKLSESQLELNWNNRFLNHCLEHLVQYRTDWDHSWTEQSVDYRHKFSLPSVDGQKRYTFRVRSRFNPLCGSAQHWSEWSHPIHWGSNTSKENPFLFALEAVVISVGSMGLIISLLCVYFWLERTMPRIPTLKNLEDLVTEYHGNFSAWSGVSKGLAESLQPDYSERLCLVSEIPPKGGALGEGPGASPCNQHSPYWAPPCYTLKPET

[2] = molecular target: T2, HUVEC IL-4 receptor (IL-4Rα/γ-like receptor component) (human, UniProt P24394 26-825)
[3] = molecular target: T2, HUVEC IL-4 receptor (IL-4Rα/γ-like …); remark: listed apart in the source

| Binder | 1° T cell proliferation, EC50, pM [1] | IC50, HUVEC antagonist assay (IL-4-induced IL-6 secretion) [2] | HUVEC, IL-6 secretion, EC50, pM [3] | antagonist potency relative to R121E, HUVEC antagonist assay [2] |
| --- | --- | --- | --- | --- |
| IL-4 mutein R121E (ligand) HKCDITLQEIIKTLNSLTEQKTLCTELTVTDIFAASKNTTEKETFCRAATVLRQFYSHHEKDTRCLGATAQQFHRHKQLIRFLKRLDRNLWGLAGLNSCPVKEANQSTLENFLERLKTIMEEKYSKCSS | 65 pM | ~60 nM | – | – |
| IL-4 mutein Y124Q (ligand) HKCDITLQEIIKTLNSLTEQKTLCTELTVTDIFAASKNTTEKETFCRAATVLRQFYSHHEKDTRCLGATAQQFHRHKQLIRFLKRLDRNLWGLAGLNSCPVKEANQSTLENFLERLKTIMREKQSKCSS | 250 pM | – | 200 pM | – |
| IL-4 mutein R121P (ligand) HKCDITLQEIIKTLNSLTEQKTLCTELTVTDIFAASKNTTEKETFCRAATVLRQFYSHHEKDTRCLGATAQQFHRHKQLIRFLKRLDRNLWGLAGLNSCPVKEANQSTLENFLERLKTIMPEKYSKCSS | 100 pM | – | 650 pM | – |
| IL-4 mutein R121F (ligand) HKCDITLQEIIKTLNSLTEQKTLCTELTVTDIFAASKNTTEKETFCRAATVLRQFYSHHEKDTRCLGATAQQFHRHKQLIRFLKRLDRNLWGLAGLNSCPVKEANQSTLENFLERLKTIMFEKYSKCSS | 150 pM | – | 20 pM | – |
| IL-4 mutein T13D/R121E (ligand) HKCDITLQEIIKDLNSLTEQKTLCTELTVTDIFAASKNTTEKETFCRAATVLRQFYSHHEKDTRCLGATAQQFHRHKQLIRFLKRLDRNLWGLAGLNSCPVKEANQSTLENFLERLKTIMEEKYSKCSS | 100 pM | ~2.2 nM | – | ~27 fold |
| IL-4 mutein R121T/E122F/Y124Q (ligand) HKCDITLQEIIKTLNSLTEQKTLCTELTVTDIFAASKNTTEKETFCRAATVLRQFYSHHEKDTRCLGATAQQFHRHKQLIRFLKRLDRNLWGLAGLNSCPVKEANQSTLENFLERLKTIMTFKQSKCSS | 15 pM | – | – | – |
| IL-4 mutein R121I (ligand) HKCDITLQEIIKTLNSLTEQKTLCTELTVTDIFAASKNTTEKETFCRAATVLRQFYSHHEKDTRCLGATAQQFHRHKQLIRFLKRLDRNLWGLAGLNSCPVKEANQSTLENFLERLKTIMIEKYSKCSS | 100 pM | – | 40 pM | – |
| IL-4 mutein R121N (ligand) HKCDITLQEIIKTLNSLTEQKTLCTELTVTDIFAASKNTTEKETFCRAATVLRQFYSHHEKDTRCLGATAQQFHRHKQLIRFLKRLDRNLWGLAGLNSCPVKEANQSTLENFLERLKTIMNEKYSKCSS | 150 pM | – | 35 pM | – |
| IL-4 mutein Y124R (ligand) HKCDITLQEIIKTLNSLTEQKTLCTELTVTDIFAASKNTTEKETFCRAATVLRQFYSHHEKDTRCLGATAQQFHRHKQLIRFLKRLDRNLWGLAGLNSCPVKEANQSTLENFLERLKTIMREKRSKCSS | 750 pM | – | 250 pM | – |
| IL-4 mutein Y124A/S125A (ligand) HKCDITLQEIIKTLNSLTEQKTLCTELTVTDIFAASKNTTEKETFCRAATVLRQFYSHHEKDTRCLGATAQQFHRHKQLIRFLKRLDRNLWGLAGLNSCPVKEANQSTLENFLERLKTIMREKAAKCSS | 600 pM | – | 200 pM | – |
| IL-4 mutein R121A (ligand) HKCDITLQEIIKTLNSLTEQKTLCTELTVTDIFAASKNTTEKETFCRAATVLRQFYSHHEKDTRCLGATAQQFHRHKQLIRFLKRLDRNLWGLAGLNSCPVKEANQSTLENFLERLKTIMAEKYSKCSS | 150 pM | – | 20 pM | – |
| IL-4 mutein R121K (ligand) HKCDITLQEIIKTLNSLTEQKTLCTELTVTDIFAASKNTTEKETFCRAATVLRQFYSHHEKDTRCLGATAQQFHRHKQLIRFLKRLDRNLWGLAGLNSCPVKEANQSTLENFLERLKTIMKEKYSKCSS | 150 pM | – | 100 pM | – |
| IL-4 mutein Y124A (ligand) HKCDITLQEIIKTLNSLTEQKTLCTELTVTDIFAASKNTTEKETFCRAATVLRQFYSHHEKDTRCLGATAQQFHRHKQLIRFLKRLDRNLWGLAGLNSCPVKEANQSTLENFLERLKTIMREKASKCSS | 150 pM | – | 65 pM | – |
| IL-4 mutein R121T (ligand) HKCDITLQEIIKTLNSLTEQKTLCTELTVTDIFAASKNTTEKETFCRAATVLRQFYSHHEKDTRCLGATAQQFHRHKQLIRFLKRLDRNLWGLAGLNSCPVKEANQSTLENFLERLKTIMTEKYSKCSS | 150 pM | – | 20 pM | – |
| IL-4 mutein Y124S (ligand) HKCDITLQEIIKTLNSLTEQKTLCTELTVTDIFAASKNTTEKETFCRAATVLRQFYSHHEKDTRCLGATAQQFHRHKQLIRFLKRLDRNLWGLAGLNSCPVKEANQSTLENFLERLKTIMREKSSKCSS | 425 pM | – | 350 pM | – |
| IL-4 mutein R121H (ligand) HKCDITLQEIIKTLNSLTEQKTLCTELTVTDIFAASKNTTEKETFCRAATVLRQFYSHHEKDTRCLGATAQQFHRHKQLIRFLKRLDRNLWGLAGLNSCPVKEANQSTLENFLERLKTIMHEKYSKCSS | 150 pM | – | 40 pM | – |
| IL-4 mutein R121W (ligand) HKCDITLQEIIKTLNSLTEQKTLCTELTVTDIFAASKNTTEKETFCRAATVLRQFYSHHEKDTRCLGATAQQFHRHKQLIRFLKRLDRNLWGLAGLNSCPVKEANQSTLENFLERLKTIMWEKYSKCSS | 150 pM | – | 80 pM | – |
| IL-4 mutein Y124T (ligand) HKCDITLQEIIKTLNSLTEQKTLCTELTVTDIFAASKNTTEKETFCRAATVLRQFYSHHEKDTRCLGATAQQFHRHKQLIRFLKRLDRNLWGLAGLNSCPVKEANQSTLENFLERLKTIMREKTSKCSS | 300 pM | – | 350 pM | – |
| IL-4 mutein R121D (ligand) HKCDITLQEIIKTLNSLTEQKTLCTELTVTDIFAASKNTTEKETFCRAATVLRQFYSHHEKDTRCLGATAQQFHRHKQLIRFLKRLDRNLWGLAGLNSCPVKEANQSTLENFLERLKTIMDEKYSKCSS | 100 pM | – | – | – |
